Residue numbers refer to the chain shown, from its start. Blank lines part the entries; values can stand above or below the binder they belong to.
Tests used:
[1] = target: T1, human GPC3-His protein (human, UniProt P51654 25-559); test: ELISA, coated human GPC3, antibody 10 nM;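 further: plate coated with antigen at 1 µg/mL, antibodies bound 2 h at 37 °C, detected via HRP-conjugated secondary antibody and TMB substrate, absorbance read after acid stop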
T1 construct: Bought protein; also called human GPC3 protein; not shown: His tag

[2] = target: T1, human GPC3-His protein; test: ELISA, coated human GPC3, antibody 0.1 nM;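 further: antigen coated on 96-well plates at 1 µg/mL, antibody bound 2 h at 37 °C, detected with HRP-labeled secondary antibody and TMB substrate, acid-stopped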
Experimental: (§1) The specific method is described as follows: The antigen protein was diluted with PBS to a final concentration of 1 μg/mL, and the diluent was added to a 96-well ELISA plate at 50 μL/well. The plate was sealed with a plastic film and incubated at 4° C. overnight, washed twice with PBS the next day, and a blocking solution [PBS+2% (w/w) BSA] was added for blocking at room temperature for 2 h. […] After incubation at 37° C. for 2 h, the plate was washed 3 times with PBS. A horseradish peroxidase (HRP)-labeled secondary antibody (purchased from Merck, Cat. No. AP113P) was added for incubation at 37° C. for 1 h, and the plate was washed 5 times with PBS. A TMB substrate was added at 50 μL/well for incubation at room temperature for 10 min, then a stop solution (1.0M HCl) was added at 50 μL/well. An ELISA plate reader (Multimode Plate Reader, EnSight, purchased from Perkin Elmer) was used to read OD_{450 nm} values, with results as shown in Table 4 to Table 6, FIG. 1A, FIG. 1B, and FIG. 1C.

[3] = target: T1, human GPC3-His protein; test: ELISA, coated human GPC3, antibody 0.001 nM
[4] = target: T1, human GPC3-His protein; test: ELISA, coated human GPC3, antibody 100 nM;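 further: antibodies bound to antigen-coated 96-well plates (1 µg/mL), 2 h at 37 °C, detected with HRP-labelled secondary antibody and TMB substrate, absorbance read at 450 nm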
[5] = target: T2, GPC3 endogenously expressed on HepG2 cells (UniProt P51654 25-554); test: FACS on HepG2 cells;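 further: flow cytometric binding of chimeric antibodies to cells, read as mean fluorescence intensity, EC50 obtained by curve fitting of the MFI data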
T2 construct: whole, on cells

[6] = target: T1, human GPC3-His protein; test: ELISA, coated human GPC3, antibody 0.0001 nM
[7] = target: T1, human GPC3-His protein; test: ELISA, coated human GPC3, antibody 1 nM;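 further: antigen coated at 1 µg/mL on 96-well plates, antibody bound for 2 h at 37 °C, detected with HRP-labeled secondary antibody and TMB, absorbance read at 450 nm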
Experimental: as §1

[8] = target: T3, human GPC3 on CHO-K1-human GPC3 cells (clone CHOK1-hGPC3.2B5) (human, UniProt P51654 25-554); test: FACS on CHOK1-hGPC3.2B5 cells;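 further: flow cytometry binding of chimeric antibodies to the cells, read out as mean fluorescence intensity, with the half-maximal concentration derived by curve fitting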
T3 construct: whole, on cells; Stably transfected CHO-K1 clone 2B5
Experimental: The desired cells were expanded to a logarithmic growth phase in a T-75 cell culture flask, the medium was removed by pipetting, and the cells were washed twice with a PBS buffer, and digested with trypsin. Then a complete medium was added to stop the digestion, and the cells were blown into a single cell suspension. After counting, the cells were centrifuged, and the cell pellet was resuspended with an FACS buffer (PBS+2% fetal bovine serum) to 2×10⁶ cells/mL. The cell resuspension solution was added to a 96-well FACS reaction plate at 50 μl/well, and a chimeric antibody sample to be tested was added at 50 μl/well for incubation at 4° C. for 1 h. […] After the plate was centrifuged and washed 3 times with a PBS buffer, 100 μl of the resulting solution was assayed and analyzed by FACS (FACS Canto™, purchased from BD Biosciences). Data analysis was performed by software (FlowJo) to obtain the mean fluorescence intensity (MFI) of the cells. Then, analysis was performed by software (GraphPad Prism8), data were fitted, and EC₅₀ values were calculated.

[9] = target: T1, human GPC3-His protein; test: ELISA, coated human GPC3, antibody 0.01 nM;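 further: Plate-bound antigen coated at 1 µg/mL, antibody incubated 2 h at 37 °C, binding detected by HRP-conjugated secondary antibody with TMB substrate, read as absorbance at 450 nm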
Experimental: as §1

OD450 nm [1]: 1.4 OD450
OD450 nm [2]: 0.43 OD450
OD450 nm [3]: 0.1 OD450
OD450 nm [4]: 1.19 OD450
EC50 [5]: 2 nM
Max MFI [5]: 2240 MFI
OD450 nm [6]: 0.11 OD450
OD450 nm [7]: 0.63 OD450
EC50 [8]: 1.41 nM
Max MFI [8]: 9540 MFI
OD450 nm [9]: 0.14 OD450
B1: F1.136.7 human-murine chimeric antibody (antibody, human IgG1, kappa, V domains shown)
VH: EVQLQQSGPVMVKPGPSVKISCQTSGFTFTDYYIHWVKQSHGKSLEWIGLVFPYDGGTNYNQKFKDKATLTLDTSSSTAYMELNSLTSEDSAVYYCARAGGFSYALNYWGQGTSVTVSS
VL: DIQMTQSPSSLSASLGGKVTITCKASQDINNYIAWYQHKPGKGPRLLIHFTSTLQPGIPSRFSGSGSGRDYSFSISNLEPEDIATYYCLQYDNLLLTFGAGTKLELKR

OD450 nm [1]: 1.18 OD450
OD450 nm [2]: 0.42 OD450
OD450 nm [3]: 0.09 OD450
OD450 nm [4]: 0.62 OD450
EC50 [5]: 0.83 nM
Max MFI [5]: 2270 MFI
OD450 nm [6]: 0.08 OD450
OD450 nm [7]: 0.77 OD450
EC50 [8]: 0.9 nM
Max MFI [8]: 9370 MFI
OD450 nm [9]: 0.13 OD450
B2: F1.110.24 human-murine chimeric antibody (antibody, human IgG1, kappa, V domains shown)
VH: EVKLVESGGGLVQPGGSLKLSCAASGFTFSDFYMYWVRQTPEKRLEWVAFISNGGGSTYYPDTVKGRFTISRDNVKNTLYLQMSRLKSEDTAMYYCARPDTSWFAYWGQGSLVTVSA
VL: DIQMTQTTSSLSASLGDRVTISCRASQDIDNYLNWYQQKPDGTVKVLISYTSRLHSGVPSRFSGSGSGTDYSLTISNLEQEDIATYFCQQGNTLPWTFGGGTKLEIKR

OD450 nm [1]: 1.07 OD450
OD450 nm [2]: 0.66 OD450
OD450 nm [3]: 0.12 OD450
OD450 nm [4]: 0.45 OD450
EC50 [5]: 0.31 nM
Max MFI [5]: 2120 MFI
OD450 nm [6]: 0.09 OD450
OD450 nm [7]: 0.72 OD450
EC50 [8]: 0.76 nM
Max MFI [8]: 10400 MFI
OD450 nm [9]: 0.19 OD450
B3: F1.78.24 human-murine chimeric antibody (antibody, human IgG1, kappa, V domains shown)
VH: QVQLQQSGAELVKPGASVKMSCKASGYTFTTYPIEWMKQNHGKSLEWIGNFHPYNDDTNYNVKFKGKATLTVEKSSSTVYLELSRLTSDDSALYYCARRREYYGSFDVWGTGTTVTVSS
VL: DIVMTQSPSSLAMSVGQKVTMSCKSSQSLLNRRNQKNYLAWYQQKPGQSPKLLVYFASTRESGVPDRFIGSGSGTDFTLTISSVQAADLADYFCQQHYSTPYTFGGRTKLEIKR

OD450 nm [1]: 2.02 OD450
OD450 nm [2]: 0.8 OD450
OD450 nm [3]: 0.11 OD450
OD450 nm [4]: 2.35 OD450
EC50 [5]: 0.71 nM
Max MFI [5]: 1650 MFI
OD450 nm [6]: 0.08 OD450
OD450 nm [7]: 1.5 OD450
EC50 [8]: 1.36 nM
Max MFI [8]: 9360 MFI
OD450 nm [9]: 0.21 OD450
B4: F1.57.21 human-murine chimeric antibody (antibody, human IgG1, kappa, V domains shown)
VH: QVQLQQSGAELARPGASVKLSCKASGYTFTSYGISWVKQITGQGLEWIGEIYPRSESTYYNEKFKGKATLTADKSSSTAYMELRSLTSEDSAVYFCARDYGNIYSFAYWGQGTLVTVSA
VL: DIQMTQSPASLSASVGETVTITCRTSENIYSYLAWYQQKQGKSPQLLVYNAKTLAEGVPSRFSGSGSGTQFSLKINSLQPEDFGSYYCQHHYGTPLTFGAGTKLELKR

OD450 nm [1]: 2.35 OD450
OD450 nm [2]: 0.94 OD450
OD450 nm [3]: 0.12 OD450
OD450 nm [4]: 2.53 OD450
EC50 [5]: 0.67 nM
Max MFI [5]: 2160 MFI
OD450 nm [6]: 0.09 OD450
OD450 nm [7]: 1.95 OD450
EC50 [8]: 1.18 nM
Max MFI [8]: 9700 MFI
OD450 nm [9]: 0.22 OD450
B5: F1.145.22 human-murine chimeric antibody (antibody, human IgG1, kappa, V domains shown)
VH: QVQLQQSGTDLARPGASVKLSCKASGYTFTSFGISWVKQRTGQGLEWIGEIYPRSGSPYYNEKFTGKATLTADKSSSTAYMELRSLTSEDSAVYFCAKDFGSSYVFDYWGQGTALTVSS
VL: B4 VL with T25A, A34T, S85T, L96P, A100T, E105D

OD450 nm [1]: 1.63 OD450
OD450 nm [2]: 0.56 OD450
OD450 nm [3]: 0.14 OD450
OD450 nm [4]: 1.62 OD450
EC50 [5]: 0.38 nM
Max MFI [5]: 2080 MFI
OD450 nm [6]: 0.11 OD450
OD450 nm [7]: 1.23 OD450
EC50 [8]: 0.52 nM
Max MFI [8]: 9730 MFI
OD450 nm [9]: 0.22 OD450
B6: F1.120.16 human-murine chimeric antibody (antibody, human IgG1, kappa, V domains shown)
VH: EFQLQQSGPELVKPGASVKISCKASGYSFTDYNMNWVKQSNGKSLEWIGLIHPKFSVTSYNRKFKGKATLTVDQSSSTAYMQLNSLTSEDSAVYYCARWAGDYFDYWGQGTTLTVSS
VL: DIVLTQSPATLSVTPGDSVSLSCRASQSISNNLHWYQQKSHESPRLLIKYASQSISGIPSRFSGSGSGTDFTLTINSVETEDFGMYFCQQSNSWPQTFGGGTKLEIKR

OD450 nm [1]: 1.95 OD450
OD450 nm [2]: 0.92 OD450
OD450 nm [3]: 0.11 OD450
OD450 nm [4]: 2.07 OD450
EC50 [5]: 0.8 nM
Max MFI [5]: 3810 MFI
OD450 nm [6]: 0.1 OD450
OD450 nm [7]: 1.66 OD450
EC50 [8]: 2.78 nM
Max MFI [8]: 3210 MFI
OD450 nm [9]: 0.21 OD450
B7: F1.3.9 human-murine chimeric antibody (antibody, human IgG1, kappa, V domains shown)
VH: QVQLQQPGTELVKPGASVKLSCKASGYTFTSYWIHWVKQRPGQGLEWIGNINPPNAGTNYNEKFKSKATLTVDKSSSTAYMQLSSLTSEDSAVYYCARGRWLLHDYWGQGTTLTVSS
VL: DIQMTQSPASLSISVGETVTITCRASENIYSNLAWYQQKQGKSPQLLVYGTKNLAEGVPSRFSGSGSGTQYSLKINSLQSEDFGNYYCQHFWGTPYTFGGGTKLEILR
